The source of these data is patent publication US20250011363A1, “OPTIMIZED SHORTENED PEPTIDE THAT BINDS TO ACETYLCHOLINE RECEPTOR, AND USE THEREOF” (SKINMED CO., LTD., priority 2021, published 2025).

The target of test [1] is acetylcholine receptor. Kind of test: SPR, AchR immobilised on chip, peptide 10 uM. Background: SPR reads the build-up and loss of mass on a sensor chip optically.
The target in test [2] is acetylcholine receptor. Kind of test: SPR, AchR on chip, peptide 10 uM.

For the molecule KEAPR [5mer-800], the Binding affinity (RU) with acetylcholine receptor [1] was 29 RU.
RESDR [5mer-821] yielded a Binding affinity (RU) with acetylcholine receptor [1] of 12 RU.
KVVYK [5mer-25] yielded a Binding affinity (RU) with acetylcholine receptor [2] of 60 RU.
KMNIK [5mer-1119] had a Binding affinity (RU) with acetylcholine receptor [1] of 19 RU.
The same measure, in the same setting: the result for RKPIK [5mer-816] reads 26 RU.
KSQCR [5mer-24] came in with a Binding affinity (RU) with acetylcholine receptor [2] of 67 RU.
For the molecule KSQRR [5mer-324], the Binding affinity (RU) with acetylcholine receptor [2] is 58 RU.
In the test with acetylcholine receptor [1], KECFR [5mer-1116] showed a Binding affinity (RU) of 24 RU.
Turning to KRIQR [5mer-325], the Binding affinity (RU) with acetylcholine receptor [2] was determined as 50 RU.
For KFHKK [5mer-810], the Binding affinity (RU) in the test with acetylcholine receptor [1] came to 11 RU.
In the test with acetylcholine receptor [1], RYTER [5mer-1106] registered a Binding affinity (RU) of 18 RU.
With KHWHR [5mer-818], the Binding affinity (RU) with acetylcholine receptor [1] is 12 RU.
RNTIK [5mer-819] had a Binding affinity (RU) in the test with acetylcholine receptor [1] of 19 RU.
On to KMTMR [5mer-811], for which the Binding affinity (RU) with acetylcholine receptor [1] was 32 RU.
In the case of KFCIR [5mer-808], the Binding affinity (RU) with acetylcholine receptor [1] turned out to be 13 RU.
Still for that read-out and setting: next, KCHPK [5mer-1109]: 14 RU; KTHKK [5mer-1102]: 20 RU; RPWKR [5mer-1100]: 24 RU.
In the test with acetylcholine receptor [2], RRQSR [5mer-322] returned a Binding affinity (RU) of 84 RU.
Molecule RPWHK [5mer-1107] had a Binding affinity (RU) with acetylcholine receptor [1] of 21 RU.
On the same count and under the same terms, the result for KKSHR [5mer-1103] reads 18 RU; that for RNPIR [5mer-1108], 19 RU.
Same read-out and setting: next, RPPDR [5mer-1120]: 33 RU; RKSGK [5mer-809]: 15 RU.
As to RKMFR [5mer-806], in the test with acetylcholine receptor [1], the Binding affinity (RU) was determined as 17 RU.
The molecule KFHGR [5mer-801] returned a Binding affinity (RU) with acetylcholine receptor [1] of 20 RU.
Same read-out and setting: next, RMHMK [5mer-1110]: 13 RU.
With KAEHK [5mer-1111], the Binding affinity (RU) in the test with acetylcholine receptor [1] is 12 RU.
Still for that read-out and setting: the result for KYKNR [5mer-1101] reads 11 RU; that for RHKDR [5mer-817], 23 RU; that for RETHK [5mer-1104], 12 RU.
In the test with acetylcholine receptor [1], RTTFK [5mer-1112] came in with a Binding affinity (RU) of 29 RU.
The same measure, in the same setting: next, RAHVR [5mer-813]: 21 RU.
Molecule KEPEK [5mer-1115] yielded a Binding affinity (RU) in the test with acetylcholine receptor [1] of 27 RU.
As to RIMHK [5mer-820], the Binding affinity (RU) in the test with acetylcholine receptor [1] turned out to be 28 RU.
With KWYYR [5mer-323], the Binding affinity (RU) with acetylcholine receptor [2] is 77 RU.
Consider RKNKK [5mer-807], for which the Binding affinity (RU) in the test with acetylcholine receptor [1] was 20 RU.
As to RPTNR [5mer-805], in the test with acetylcholine receptor [1], the Binding affinity (RU) was 27 RU.
RFSDR [5mer-803] yielded a Binding affinity (RU) in the test with acetylcholine receptor [1] of 11 RU.
For the molecule RKTFR [5mer-1114], the Binding affinity (RU) with acetylcholine receptor [1] was 28 RU.
The same measure, in the same setting: the result for KDKPR [5mer-799] reads 24 RU.
Same read-out and setting: the result for RMDAR [5mer-1118] reads 28 RU; that for RPTKR [5mer-1105], 33 RU; that for RITMR [5mer-814], 11 RU.
With KWLYK [5mer-23], the Binding affinity (RU) in the test with acetylcholine receptor [2] worked out at 86 RU.
KTEGR [5mer-812] registered a Binding affinity (RU) with acetylcholine receptor [1] of 27 RU.
With RATAR [5mer-1099], the Binding affinity (RU) in the test with acetylcholine receptor [1] came to 14 RU.
Molecule RHKIR [5mer-1117] showed a Binding affinity (RU) with acetylcholine receptor [1] of 11 RU.
Consider RNTIR [5mer-804], for which the Binding affinity (RU) with acetylcholine receptor [1] stood at 20 RU.
On the same count and under the same terms, next, RHMER [5mer-1113]: 19 RU; RITVR [5mer-802]: 27 RU; RKDHR [5mer-815]: 27 RU.
